Laboratory results published in patent US6074851A, “Catalytic macro molecules having cdc25B like activity” (Pharmacia & UpJohn Company, priority 1997, dated 2000).

B1: human cdc25B Mutein3, cdc25B (356-566) with Arg556Lys/Arg557Lys, SEQ ID NO: 23 (Homo sapiens; R570K/R571K) (protein)
chain: VLRSKSLCHDEIENLLDSDHRELIGDYSKAFLLQTVDGKHQDLKYISPETMVALLTGKFSNIVDKFVIVDCRYPYEYEGGHIKTAVNLPLERDAESFLLKSPIAPCSLDKRVILIFHCEFSSERGPRMCRFIRERDRAVNDYPSLYYPEMYILKGGYKEFFPQHPNFCEPQDYRPMNHEAFKDELKTFRLKTRSWAGERSKKELCSRLQDQ
B2: human cdc25B (356-556) minimal catalytic domain, Val356-Arg556, GST-free, Form II, SEQ ID NO: 9 (Homo sapiens) (protein)
chain: VLRSKSLCHDEIENLLDSDHRELIGDYSKAFLLQTVDGKHQDLKYISPETMVALLTGKFSNIVDKFVIVDCRYPYEYEGGHIKTAVNLPLERDAESFLLKSPIAPCSLDKRVILIFHCEFSSERGPRMCRFIRERDRAVNDYPSLYYPEMYILKGGYKEFFPQHPNFCEPQDYRPMNHEAFKDELKTFRLKTRSWAGERSR
B3: human cdc25B (364-529) VHR-like catalytic domain, GST-free, GIQ-cdc25B (364-529), SEQ ID NO: 24 (Homo sapiens) (protein)
chain: HDEIENLLDSDHRELIGDYSKAFLLQTVDGKHQDLKYISPETMVALLTGKFSNIVDKFVIVDCRYPYEYEGGHIKTAVNLPLERDAESFLLKSPIAPCSLDKRVILIFHCEFSSERGPRMCRFIRERDRAVNDYPSLYYPEMYILKGGYKEFFPQHPNFCEPQDYR
B4: near full length GST-cdc25B (31-566) fusion protein (Homo sapiens) (protein)
chain: GLLLGSHGLLGSPVRAAASSPVTTLTQTMHDLAGLGSRSRLTHLSLSRRASESSLSSESSESSDAGLCMDSPSPMDPHMAEQTFEQAIQAASRIIRNEQFAIRRFQSMPVRLLGHSPVLRNITNSQAPDGRRKSEAGSGAASSSGEDKENDGFVFKMPWKPTHPSSTHALAEWASRREAFAQRPSSAPDLMCLSPDRKMEVEELSPLALGRFSLTPAEGDTEEDDGFVDILESDLKDDDAVPPGMESLISAPLVKTLEKEEEKDLVMYSKCQRLFRSPSMPCSVIRPILKRLERPQDRDTPVQNKRRRSVTPPEEQQEAEEPKARVLRSKSLCHDEIENLLDSDHRELIGDYSKAFLLQTVDGKHQDLKYISPETMVALLTGKFSNIVDKFVIVDCRYPYEYEGGHIKTAVNLPLERDAESFLLKSPIAPCSLDKRVILIFHCEFSSERGPRMCRFIRERDRAVNDYPSLYYPEMYILKGGYKEFFPQHPNFCEPQDYRPMNHEAFKDELKTFRLKTRSWAGERSRRELCSRLQDQ

Experiments:
[1] = target: GST-cdc25B (residues 355-566) fusion protein (Homo sapiens, UniProt P30305); conditions: PNPP as substrate, 37° C.; cited from earlier work
[2] = substrate: O=[N+]([O-])c1ccc(OP(=O)(O)O)cc1; experiment: purified protein, by the assay type; conditions: other: PNPP as substrate, 25° C., pH 8.0

| Molecule | Km [1] | Km [2] | Vmax [2] |
| --- | --- | --- | --- |
| O=[N+]([O-])c1ccc(OP(=O)(O)O)cc1 [PNPP, p-nitrophenyl phosphate] | 16.6 mM | – | – |
| B1 | – | 2.0 mM | – |
| B2 | – | 2.0 mM | – |
| B3 | – | 28 mM | 250 nmol/min/mg |
| B4 | – | 12.0 mM | – |
